Assay results published in the supplement of paper PMC10567573.

B1: ZNF207 (parent)
chain: FPSAGQAQAAVQGPVGTDFKPLNS

Variants of: B1
Assay: protein stability index of a GFP-peptide fusion (GPS, HEK-293T) (PSI 1-6); higher = more stable
Conditions: c terminus: a fixed tail appended
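Further: lentivirally expressed fusions sorted by FACS into six bins by GFP to DsRed ratio, PSI derived from sequencing read proportions per bin multiplied by bin number.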

Protein stability index, by site and new letter:
G13: L 3.69; K 3.76; A 3.26; F 2.9; S 3.69; M 3.38; I 3.22; E 3.79; R 3.5; P 3.57; V 3.23; D 3.74; H 3.37; T 3.52; Y 3.12; C 3.4; Q 3.09; W 2.53; N 3.58
K20: G 3.77; H 3.49; A 3.2; R 3.49; D 4.07; Y 2.79; M 3.33; L 3.2; I 3.34; N 3.72; C 3.85; W 2.59; S 3.34; V 3.25; E 3.98; P 3.35; T 3.59; F 2.35; Q 3.47
D18: P 3.11; V 2.61; R 2.96; Y 2.36; F 2.34; S 2.81; C 2.65; A 3.31; K 2.99; H 2.74; E 3.63; T 3.4; Q 3.02; N 3.79; G 2.8; M 2.85; L 2.32; W 2.51; I 2.67
P21: E 3.55; C 3.29; G 3.13; D 3.81; F 2.81; I 2.87; H 3.28; A 3.59
V15: I 3.84; W 1.75; S 3.84; P 3.63; N 3.88; K 3.58; L 3.44; C 3.16; E 3.77; D 3.49; H 3.29; G 3.1; F 2.73; Q 3.62; T 3.7; M 3.01; A 3.62; Y 2.93; R 3.28
F19: H 3.77; L 3.91; A 3.85; M 3.76; C 3.49; T 3.55; Y 3.79; W 3.41; D 4.4; R 4.11; P 3.29; K 4.17; S 4.03; Q 3.97; E 4.06; I 3.64; V 3.35; N 4.33; G 4.15
T17: E 3.9; L 2.84; K 3.27; H 3.26; Y 2.85; W 2.25; V 2.81; M 3.03; N 3.65; G 3.78; I 3.03; P 3.3; C 3.12; F 3.05; Q 4.12; D 4.02; S 3.88; A 3.03; R 3.19
Q12: R 3.1; T 3.61; V 3.36; S 3.36; P 3.88; Y 2.46; N 3.41
P14: G 3.54; I 2.98; L 3.04; A 3.47; C 3.04; R 3.36; Q 3.62; T 3.3; H 3.71; F 2.55; Y 3.44; N 3.68; W 1.97; K 2.8; M 3.22; V 3.32; D 4.01; S 3.34; E 3.92
G16: V 3.25; Q 3.93; N 3.65; L 3.21; T 3.64; S 3.48; W 2.3; I 3.27; P 3.42; R 3.42; C 3.37; A 3.13; H 3.52; E 3.94; M 3.04; D 3.75; F 3.17; Y 2.9; K 3.12
